In patent publication US20250002588A1 (DIAGONAL THERAPEUTICS, published 2025):

B1: DGL893 (bispecific antibody)
chain 1: not shown
chain 2: EVQLLESGGGLVQPGGSLRLSCAASGFTFSDYYMTWIRQAPGKGLEWVSSISGGSTYYADSRKGRFTISRDNSENTLYLQMNSLRAEDTAVYYCARDFGVSGWFGQYGMDVWGQGTLVTVSSGGGGSGGGGSGGGGSQSVLTQPPSASGTPGQRVTISCTGSSSNIGAGYDVHWYQQLPGTAPKLLIYRSNQRPSGVPDRFSGSKSGTSASLAISGLRSEDEADYYCSSYAGNYNLVFGGGTKLTVLDKTHTCPPCPAPEAAGAPSVFLFPPKPKDTLMISRTPEVTCVVVDVSHEDPEVKFNWYVDGVEVHNAKTKPREEQYNSTYRVVSVLTVLHQDWLNGKEYKCKVSNKALPAPIEKTISKAKGQPREPQVCTLPPSRDELTKNQVSLSCAVKGFYPSDIAVEWESNGQPENNYKTTPPVLDSDGSFFLVSKLTVDKSRWQQGNVFSCSVMHEALHNHYTQKSLSLSPGWSHPQFEK
B2: PRO003 (bispecific antibody)
chain: EVQLLESGGGLVQPGGSLRLSCAASGFTFSIYAMSWVRQAPGKGLEWVSAISGSGGSTYYADSVKGRFTISRDNSKNTLYLQMNSLRAEDTAVYYCARDFDYWGQGTLVTVTSSGGGGSGGGGSGGGGSQSVLTQPPSASGTPGQRVTISCSGSSSNIGSNYVYWYQQLPGTAPKLLIYGNINRPSGVPDRFSGSKSGTSASLAISGLRSEDEADYYCAAWDDSLNGRVFGGGTKLTVLDKTHTCPPCPAPEAAGAPSVFLFPPKPKDTLMISRTPEVTCVVVDVSHEDPEVKFNWYVDGVEVHNAKTKPREEQYNSTYRVVSVLTVLHQDWLNGKEYKCKVSNKALPAPIEKTISKAKGQPREPQVYTLPPSRDELTKNQVSLTCLVKGFYPSDIAVEWESNGQPENNYKTTPPVLDSDGSFFLYSKLTVDKSRWQQGNVFSCSVMHEALHNHYTQKSLSLSPGGGGGSGGGGSEVQLLESGGGLVQPGGSLRLSCAASGFTFSNAWMNWVRQAPGKGLEWVSSISSSSSYIYYADSVKGRFTISRDNSKNTLYLQMNSLRAEDTAVYYCARAVAAGGMFWGLDQWGQGTLVTVTSSGGGGSGGGGSGGGGSQSVLTQPPSASGTPGQRVTISCSGSRSNIGSNSVHWYQQLPGTAPKLLIYGNSNRPSGVPDRFSGSKSGTSASLAISGLRSEDEADYYCQSYDSSLNDHVVFGGGTKLTVL
B3: DGL266 (bispecific antibody)
chain 1: EVQLLESGGGLVQPGGSLRLSCAASGFTFSIYAMSWVRQAPGKGLEWVSAISGSGGSTYYADSVKGRFTISRDNSKNTLYLQMNSLRAEDTAVYYCARDFDYWGQGTLVTVTSSGGGGSGGGGSGGGGSQSVLTQPPSASGTPGQRVTISCSGSSSNIGSNYVYWYQQLPGTAPKLLIYGNINRPSGVPDRFSGSKSGTSASLAISGLRSEDEADYYCAAWDDSLNGRVFGGGTKLTVLGGGGSGGGGSGGGGSGVECPPCPAPPVAGPSVFLFPPKPKDTLMISRTPEVTCVVVDVSHEDPEVQFNWYVDGVEVHNAKTKPREEQFNSTFRVVSVLTVVHQDWLNGKEYKCKVSNKGLPAPIEKTISKTKGQPREPQVYTLPPCREEMTKNQVSLWCLVKGFYPSDIAVEWESNGQPENNYKTTPPMLDSDGSFFLYSKLTVDKSRWQQGNVFSCSVMHEALHNHYTQKSLSLSPG
chain 2: EVQLLESGGGLVQPGGSLRLSCAASGFTFSNAWMNWVRQAPGKGLEWVSSISSSSSYIYYADSVKGRFTISRDNSKNTLYLQMNSLRAEDTAVYYCARAVAAGGMFWGLDQWGQGTLVTVTSSGGGGSGGGGSGGGGSQSVLTQPPSASGTPGQRVTISCSGSRSNIGSNSVHWYQQLPGTAPKLLIYGNSNRPSGVPDRFSGSKSGTSASLAISGLRSEDEADYYCQSYDSSLNDHVVFGGGTKLTVLGGGGSGGGGSGGGGSGVECPPCPAPPVAGPSVFLFPPKPKDTLMISRTPEVTCVVVDVSHEDPEVQFNWYVDGVEVHNAKTKPREEQFNSTFRVVSVLTVVHQDWLNGKEYKCKVSNKGLPAPIEKTISKTKGQPREPQVCTLPPSREEMTKNQVSLSCAVKGFYPSDIAVEWESNGQPENNYKTTPPMLDSDGSFFLVSKLTVDKSRWQQGNVFSCSVMHEALHNHYTQKSLSLSPG
B4: PRO004 (bispecific antibody)
chain: EVQLLESGGGLVQPGGSLRLSCAASGFTFSNAWMNWVRQAPGKGLEWVSSISSSSSYIYYADSVKGRFTISRDNSKNTLYLQMNSLRAEDTAVYYCARAVAAGGMFWGLDQWGQGTLVTVTSSGGGGSGGGGSGGGGSQSVLTQPPSASGTPGQRVTISCSGSRSNIGSNSVHWYQQLPGTAPKLLIYGNSNRPSGVPDRFSGSKSGTSASLAISGLRSEDEADYYCQSYDSSLNDHVVFGGGTKLTVLDKTHTCPPCPAPEAAGAPSVFLFPPKPKDTLMISRTPEVTCVVVDVSHEDPEVKFNWYVDGVEVHNAKTKPREEQYNSTYRVVSVLTVLHQDWLNGKEYKCKVSNKALPAPIEKTISKAKGQPREPQVYTLPPSRDELTKNQVSLTCLVKGFYPSDIAVEWESNGQPENNYKTTPPVLDSDGSFFLYSKLTVDKSRWQQGNVFSCSVMHEALHNHYTQKSLSLSPGGGGGSGGGGSEVQLLESGGGLVQPGGSLRLSCAASGFTFSIYAMSWVRQAPGKGLEWVSAISGSGGSTYYADSVKGRFTISRDNSKNTLYLQMNSLRAEDTAVYYCARDFDYWGQGTLVTVTSSGGGGSGGGGSGGGGSQSVLTQPPSASGTPGQRVTISCSGSSSNIGSNYVYWYQQLPGTAPKLLIYGNINRPSGVPDRFSGSKSGTSASLAISGLRSEDEADYYCAAWDDSLNGRVFGGGTKLTVL
B5: PRO005 (bispecific antibody)
chain: EVQLLESGGGLVQPGGSLRLSCAASGFTFSSYAMSWVRQAPGKGLEWVANINQDGSEKNYVDSMRGRFTISRDNSKNTLYLQMNSLRAEDTAVYYCAREFDYWGQGTLVTVTSSGGGGSGGGGSGGGGSQSVLAQPPSASGTPGQRVTISCSGSSSNIGSNYVYWYQQLPGTAPKLLIYGNNKRPSGVPDRFSGSKSGTSASLAISGLRSEDEADYYCAAWDDSLNGRVFGGGTKLTVLDKTHTCPPCPAPEAAGAPSVFLFPPKPKDTLMISRTPEVTCVVVDVSHEDPEVKFNWYVDGVEVHNAKTKPREEQYNSTYRVVSVLTVLHQDWLNGKEYKCKVSNKALPAPIEKTISKAKGQPREPQVYTLPPSRDELTKNQVSLTCLVKGFYPSDIAVEWESNGQPENNYKTTPPVLDSDGSFFLYSKLTVDKSRWQQGNVFSCSVMHEALHNHYTQKSLSLSPGGGGGSGGGGSEVQLLESGGGLVQPGGSLRLSCAASGFTFSDYYMTWIRQAPGKGLEWVSSISGGSTYYADSRKGRFTISRDNSENTLYLQMNSLRAEDTAVYYCARDFGVAGWFGQYGMDVWGQGTLVTVSSGGGGSGGGGSGGGGSQSVLTQPPSASGTPGQRVTISCTGSSSNIGAGYDVHWYQQLPGTAPKLLIYRSNQRPSGVPDRFSGSKSGTSASLAISGLRSEDEADYYCSSYAGNYNLVFGGGTKLTVL
B6: DGL287 (bispecific antibody)
chain: EVQLLESGGGLVQPGGSLRLSCAASGFTFSSYAMSWVRQAPGKGLEWVANINQDGSEKNYVDSMRGRFTISRDNSKNTLYLQMNSLRAEDTAVYYCAREFDYWGQGTLVTVTSSGGGGSGGGGSGGGGSQSVLAQPPSASGTPGQRVTISCSGSSSNIGSNYVYWYQQLPGTAPKLLIYGNNKRPSGVPDRFSGSKSGTSASLAISGLRSEDEADYYCAAWDDSLNGRVFGGGTKLTVLDKGPSVFPLAPEPKSSEVQLLESGGGLVQPGGSLRLSCAASGFTFSDYYMTWIRQAPGKGLEWVSSISGGSTYYADSRKGRFTISRDNSENTLYLQMNSLRAEDTAVYYCARDFGVAGWFGQYGMDVWGQGTLVTVSSGGGGSGGGGSGGGGSQSVLTQPPSASGTPGQRVTISCTGSSSNIGAGYDVHWYQQLPGTAPKLLIYRSNQRPSGVPDRFSGSKSGTSASLAISGLRSEDEADYYCSSYAGNYNLVFGGGTKLTVLDKTHTCPPCPAPEAAGAPSVFLFPPKPKDTLMISRTPEVTCVVVDVSHEDPEVKFNWYVDGVEVHNAKTKPREEQYNSTYRVVSVLTVLHQDWLNGKEYKCKVSNKALPAPIEKTISKAKGQPREPQVYTLPPSRDELTKNQVSLTCLVKGFYPSDIAVEWESNGQPENNYKTTPPVLDSDGSFFLYSKLTVDKSRWQQGNVFSCSVMHEALHNHYTQKSLSLSPG
B7: PRO006 (bispecific antibody)
chain: EVQLLESGGGLVQPGGSLRLSCAASGFTFSDYYMTWIRQAPGKGLEWVSSISGGSTYYADSRKGRFTISRDNSENTLYLQMNSLRAEDTAVYYCARDFGVAGWFGQYGMDVWGQGTLVTVSSGGGGSGGGGSGGGGSQSVLTQPPSASGTPGQRVTISCTGSSSNIGAGYDVHWYQQLPGTAPKLLIYRSNQRPSGVPDRFSGSKSGTSASLAISGLRSEDEADYYCSSYAGNYNLVFGGGTKLTVLDKTHTCPPCPAPEAAGAPSVFLFPPKPKDTLMISRTPEVTCVVVDVSHEDPEVKFNWYVDGVEVHNAKTKPREEQYNSTYRVVSVLTVLHQDWLNGKEYKCKVSNKALPAPIEKTISKAKGQPREPQVYTLPPSRDELTKNQVSLTCLVKGFYPSDIAVEWESNGQPENNYKTTPPVLDSDGSFFLYSKLTVDKSRWQQGNVFSCSVMHEALHNHYTQKSLSLSPGGGGGSGGGGSEVQLLESGGGLVQPGGSLRLSCAASGFTFSSYAMSWVRQAPGKGLEWVANINQDGSEKNYVDSMRGRFTISRDNSKNTLYLQMNSLRAEDTAVYYCAREFDYWGQGTLVTVTSSGGGGSGGGGSGGGGSQSVLAQPPSASGTPGQRVTISCSGSSSNIGSNYVYWYQQLPGTAPKLLIYGNNKRPSGVPDRFSGSKSGTSASLAISGLRSEDEADYYCAAWDDSLNGRVFGGGTKLTVL
B8: DGL288 (bispecific antibody)
chain: EVQLLESGGGLVQPGGSLRLSCAASGFTFSDYYMTWIRQAPGKGLEWVSSISGGSTYYADSRKGRFTISRDNSENTLYLQMNSLRAEDTAVYYCARDFGVAGWFGQYGMDVWGQGTLVTVSSGGGGSGGGGSGGGGSQSVLTQPPSASGTPGQRVTISCTGSSSNIGAGYDVHWYQQLPGTAPKLLIYRSNQRPSGVPDRFSGSKSGTSASLAISGLRSEDEADYYCSSYAGNYNLVFGGGTKLTVLDKGPSVFPLAPEPKSSEVQLLESGGGLVQPGGSLRLSCAASGFTFSSYAMSWVRQAPGKGLEWVANINQDGSEKNYVDSMRGRFTISRDNSKNTLYLQMNSLRAEDTAVYYCAREFDYWGQGTLVTVTSSGGGGSGGGGSGGGGSQSVLAQPPSASGTPGQRVTISCSGSSSNIGSNYVYWYQQLPGTAPKLLIYGNNKRPSGVPDRFSGSKSGTSASLAISGLRSEDEADYYCAAWDDSLNGRVFGGGTKLTVLDKTHTCPPCPAPEAAGAPSVFLFPPKPKDTLMISRTPEVTCVVVDVSHEDPEVKFNWYVDGVEVHNAKTKPREEQYNSTYRVVSVLTVLHQDWLNGKEYKCKVSNKALPAPIEKTISKAKGQPREPQVYTLPPSRDELTKNQVSLTCLVKGFYPSDIAVEWESNGQPENNYKTTPPVLDSDGSFFLYSKLTVDKSRWQQGNVFSCSVMHEALHNHYTQKSLSLSPG

target: T1, ALK-1/BMPR-2 receptor pair of the PathHunter U2Os dimerization cells (DiscoverX 93-0962C3) (UniProt P37023 22-503; Q13873 27-1038); assay: cell-based or functional assay
T1 sequence (P37023 22-503, chain 1 of 2): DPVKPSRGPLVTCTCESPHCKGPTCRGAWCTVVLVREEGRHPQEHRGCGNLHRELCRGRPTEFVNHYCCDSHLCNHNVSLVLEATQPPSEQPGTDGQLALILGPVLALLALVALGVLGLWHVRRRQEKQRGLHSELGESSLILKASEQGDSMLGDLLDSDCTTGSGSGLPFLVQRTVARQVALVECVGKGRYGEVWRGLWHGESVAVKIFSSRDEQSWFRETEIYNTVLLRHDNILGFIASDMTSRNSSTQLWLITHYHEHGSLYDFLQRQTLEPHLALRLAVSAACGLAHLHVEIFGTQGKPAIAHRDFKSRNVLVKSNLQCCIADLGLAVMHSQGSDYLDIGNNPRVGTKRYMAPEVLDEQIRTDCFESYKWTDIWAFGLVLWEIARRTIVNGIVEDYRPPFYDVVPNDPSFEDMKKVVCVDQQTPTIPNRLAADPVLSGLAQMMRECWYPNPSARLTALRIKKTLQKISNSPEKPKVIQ
T1 sequence (Q13873 27-1038, chain 2 of 2): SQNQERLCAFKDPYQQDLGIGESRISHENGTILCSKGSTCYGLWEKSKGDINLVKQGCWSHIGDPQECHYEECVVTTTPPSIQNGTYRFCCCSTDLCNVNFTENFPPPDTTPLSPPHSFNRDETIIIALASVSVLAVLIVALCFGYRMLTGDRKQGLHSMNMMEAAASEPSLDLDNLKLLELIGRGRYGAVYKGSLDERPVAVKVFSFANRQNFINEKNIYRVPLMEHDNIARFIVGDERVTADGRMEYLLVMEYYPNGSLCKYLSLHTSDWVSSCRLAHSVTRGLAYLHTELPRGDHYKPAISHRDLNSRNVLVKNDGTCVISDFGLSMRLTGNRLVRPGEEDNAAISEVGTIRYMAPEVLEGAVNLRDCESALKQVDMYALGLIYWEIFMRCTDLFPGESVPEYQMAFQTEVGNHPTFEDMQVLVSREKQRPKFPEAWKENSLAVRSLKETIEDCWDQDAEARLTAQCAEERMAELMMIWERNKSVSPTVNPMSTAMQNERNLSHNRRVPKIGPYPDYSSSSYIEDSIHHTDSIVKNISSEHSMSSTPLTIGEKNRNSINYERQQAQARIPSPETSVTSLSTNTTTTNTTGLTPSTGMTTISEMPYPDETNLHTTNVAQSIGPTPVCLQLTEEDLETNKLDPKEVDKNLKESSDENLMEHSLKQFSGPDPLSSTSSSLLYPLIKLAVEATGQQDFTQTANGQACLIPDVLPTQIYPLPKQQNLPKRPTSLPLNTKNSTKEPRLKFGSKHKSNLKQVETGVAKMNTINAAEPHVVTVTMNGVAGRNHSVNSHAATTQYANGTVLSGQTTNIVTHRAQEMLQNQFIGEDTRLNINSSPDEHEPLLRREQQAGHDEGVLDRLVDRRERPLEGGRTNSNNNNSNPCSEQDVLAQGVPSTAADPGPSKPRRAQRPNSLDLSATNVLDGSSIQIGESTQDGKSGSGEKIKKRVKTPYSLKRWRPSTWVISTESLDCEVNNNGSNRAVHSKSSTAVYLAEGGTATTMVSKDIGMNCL

% Emax BMP9 | Emax (RLU) | Binder
20% | 552000 RLU | B1

target: T1, ALK-1/BMPR-2 receptor pair of the …; assay: cell-based or functional assay; remark: another data set of the same source

% Emax BMP9 | EC50 | Emax (RLU) | Binder
47% | 0.1 nM | 1.25e+06 RLU | B2
39% | 2 nM | 1.04e+06 RLU | B3
46% | 0.5 nM | 1.21e+06 RLU | B4
35% | 0.075 nM | 931000 RLU | B5
48% | 0.04 nM | 1.26e+06 RLU | B6
35% | 0.1 nM | 929000 RLU | B7
76% | 0.07 nM | 2e+06 RLU | B8
